In the assay the target is PCSK9. Put plainly: Biacore SPR.

B1: 1B20 variant G2 (antibody, part only; not given: light chain, probably the common parent VL, V domains shown, part only)
VH: QVKLVQSGAEVKKPGESLKISCKGSGYSFTDYYISWVRQMPGKGLEWMGIIYPGDSYTHYNPKFQGQVTISADKSISTAYLQWSSLKASDTAMYYCARDRWSKPLFDVWGQGTLVTVSS
Molecule B1 showed a Kd of 2.11 nM.

B2: 1B20 variant A4 (antibody, part only; not given: light chain, probably the common parent VL, V domains shown, part only)
VH: QVQLVQSGAEVKKPGESLKISCKGSGYSFTDYYISWVRQMPGKGLEWMGSIYPGDSYTHYSHKFQGQVTISADKSISTAYLQWSSLKASDTAIYYCARDHWSRPFFDVWGQGTLVTVSS
In the case of B2, the dissociation constant (Kd) was 2.15 nM.

B3: 1B20 variant A6 (antibody, part only; not given: light chain, V domains shown, part only)
VH: QVQLVQSGAEVKKPGESLKISCKGSGYSFTNYYISWVRQMPGKGLEWMGLIYPGDSYTRYNPSFQGQVTISADKSISTAYLQWSSLKASDTAMYYCARDYYSRPFSDIWGQGTLVTVSS
With B3, the Kd was 1.39 nM.

B4: 1B20 variant F1 (antibody, part only; not given: light chain, probably the common parent VL, V domains shown, part only)
VH: QVQLVQSGAEVKKPGESLKISCKGSGYSFTDYYISWVRQMPGKGLEWMGLIYPGDSYTNYSPKFQGQVTISADKSISTAYLQWSSLKASDTAMYYCARDHWSKPLSDVWGQGTLVTVSS
The molecule B4 gave an equilibrium dissociation constant (Kd) of 3.47 nM.

B5: 1B20 variant H4 (antibody, part only; not given: light chain, probably the common parent VL, V domains shown, part only)
VH: QVQLVQSGAEVKKPGESLKISCKGSGYSFTNYYITWVRQMPGRGLEWMGIIYPGDSYTRYNPKFQGQVTISADKSISTAYLQWSSLKASDTAMYYCARDHWSKPFSDVWGQGTLVTVSS
Molecule B5 showed a Kd of 1.52 nM.

B6: 1B20 variant H1 (antibody, part only; not given: light chain, probably the common parent VL, V domains shown, part only)
VH: QVQLVQSGAEVKKPGESLKISCKGSGYSFTDYYIAWVRQMPGKGLEWMGIIYPGDSYTRYNPRFQGQVTISADKSISTAYLQWSSLKASDTAMYYCARDYWSKPLSDIWGQGTLVTVSS
For the molecule B6, the dissociation constant (Kd) worked out at 2.01 nM.

B7: 1B20 variant A7 (antibody, part only; not given: light chain, V domains shown, part only)
VH: QVQLVQSGAEVKKPGESLKISCKGSGYSFTNYYISWVRQMPGKGLEWMGIIYPGDSYTRYNPNFQGQVTISADKSISTAYLQWSSLKASDTAMYYCARDYWSKPLSDVWGQGTLVTVSS
In the case of B7, the Kd was 1.28 nM.

B8: 1B20 variant D4 (antibody, part only; not given: light chain, probably the common parent VL, V domains shown, part only)
VH: QVQLVQSGAEVKKPGESLKISCKGSGYSFTDYYIAWVRQMPGKGLEWMGIIYPGDSYTRYNPKFQGQVTISADKSISTAYLQWSSLKASDTAMYYCARDYWSRPFSDVWGQGTLVTVSS
B8 gave a Kd of 1.91 nM.

B9: 1B20 variant G3 (antibody, part only; not given: light chain, probably the common parent VL, V domains shown, part only)
VH: QVQLVQSGAEVKKPGESLKISCKGSGYSFTNYYISWVRQMPGKGLEWMGLIYPGDSYTRYNPKFQGQVTISADKSISTAYLQWSSLKASDTAMYYCARDYYSRPYSDVWGQGTLVTVSS
B9 yielded a Kd of 1.53 nM.

B10: 1B20 variant A8 (antibody, part only; not given: light chain, probably the common parent VL, V domains shown, part only)
VH: QVQLVQSGAEVKKPGESLKISCKGSGYSFTNYYISWVRQMPGKGLEWMGMIYPGDSYTHYSPNFQGQVTISADKSISTAYLQWSSLKASDTAMYYCARDYWSKPYFDVWGQGTLVTVSS
Molecule B10 came in with a Kd of 1.19 nM.

B11: 1B20 variant B2 (antibody, part only; not given: light chain, probably the common parent VL, V domains shown, part only)
VH: QVQLVQSGAEVKKPGESLKISCKGSGYSFTNYYISWVRQMPGKGLEWMGLIYPGDSYTNYNPNFQGQVTISADKSISTAYLQWSSLKASDTAMYYCARDHYSTPFFDVWGQGTLVTVSS
Turning to B11, the dissociation constant Kd amounted to 2.21 nM.

B12: 1B20 variant F7 (antibody, part only; not given: light chain, V domains shown, part only)
VH: QVQLVQSGAEVKKPGESLKISCKGSGYSFTNYYIAWVRQMPGKGLEWMGIIYPGDSYTHYNPKFQGQVTISADKSISTAYLQWSSLKASDTAMYYCARDHWSRPFSDVWGQGTLVTVSS
Molecule B12 registered a dissociation constant Kd of 1.26 nM.

B13: 1B20 variant B9 (antibody, part only; not given: light chain, V domains shown, part only)
VH: QVQLVQSGAEVKKPGESLKISCKGSGYSFTNYYISWVRQMPGKGLEWMGIIYPGDSYIHYNQNFQGQVTISADKSISTAYLQWSSLKASDTAMYYCARDYYSRPFSDIWGQGTLVTVSS
In turn, B13 displayed a Kd of 3.81 nM.

B14: 1B20 variant F8 (antibody, part only; not given: light chain, probably the common parent VL, V domains shown, part only)
VH: QVQLVQSGAEVKKPGESLKISCKGSGYSFTNYYISWVRQMPGKGLEWMGMIYPGDSYTNYNQKFQGQVTISADKSISTAYLQWSSLKASDTAMYYCARDYWSRPYSDIWGQGTLVTVSS
Molecule B14 gave a Kd of 1.35 nM.

B15: 1B20 variant F2 (antibody, part only; not given: light chain, V domains shown, part only)
VH: QVQLVQSGAEVKKPGESLKISCKGSGYSFTNYYIAWVRQMPGKGLEWMGVIYPGDSYTRYNPKFQGQVTISADKSISTAYLQWSSLKASDTAMYYCARDYWSRPYFDIWGQGTLVTVSS
B15 came in with a Kd of 1.01 nM.

B16: 1B20 variant C2 (antibody, part only; not given: light chain, probably the common parent VL, V domains shown, part only)
VH: QVQLVQSGAEVKKPGESLKISCKGSGYSFTDYYIAWVRQMPGKGLEWMGLIYPGDSYTSYNPRFQGQVTISADKSISTAYLQWSSLKASDTAMYYCARDYWSTPYFDIWGQGTLVTVSS
B16 showed a Kd of 2.25 nM.

B17: 1B20 variant F6 (antibody, part only; not given: light chain, probably the common parent VL, V domains shown, part only)
VH: QVQLVQSGAEVKKPGESLKISCKGSGYSFTNYYISWVRQMPGKGLEWMGLIYPGDSYTHYNPSFQGQVTISADKSISTAYLQWSSLKASDTAMYYCARDHWYKPFSDIWGQGTLVTVSS
In turn, B17 came in with a dissociation constant (Kd) of 2.68 nM.

B18: 1B20 variant B3 (antibody, part only; not given: light chain, probably the common parent VL, V domains shown, part only)
VH: QVQLVQSGAEVKKPGESLKISCKGSGYSFTNYYISWVRQMPGKGLEWMGMIYPGDSYTSYNPKFQGQVTISADKSISTAYLQWSSLKASDTAMYYCARDHWSKPYFDIWGQGTLVTVSS
In turn, B18 had a Kd of 1.21 nM.

B19: 1B20 variant B6 (antibody, part only; not given: light chain, probably the common parent VL, V domains shown, part only)
VH: QVQLVQSGAEVKKPGESLKISCKGSGYSFTDYYISWVRQMPGKGLEWMGIIYPGDSYTNYNPSFQGQVTISADKSISTAYLQWSSLKASDTAMYYCARDYWYRPFSDIWGQGTLVTVSS
Molecule B19 showed a Kd of 2.88 nM.

B20: 1B20 variant B5 (antibody, part only; not given: light chain, probably the common parent VL, V domains shown, part only)
VH: QVQLVQSGAEVKKPGESLKISCKGSGYSFTDYYISWVRQMPGKGLEWMGMIYPGDSYTRYSPSFQGQVTISADKSISTAYLQSSSLKASDTAMYYCARDYWYKPFSDVWGQGTLVTVSS
B20: the Kd was found to be 1.36 nM.

B21: 1B20 variant B4 (antibody, part only; not given: light chain, probably the common parent VL, V domains shown, part only)
VH: QVQLVQSGAEVKKPGESLKISCKGSGYSFTDYYISWVRQMPGKGLEWMGLIYPGDSYTHYNPNFQGQVTISADKSISTAYLQWSSLKASDTAMYYCARDYWSKPLFDVWGQGTLVTVSS
In turn, B21 registered a Kd of 2.01 nM.

B22: 1B20 variant H5 (antibody, part only; not given: light chain, probably the common parent VL, V domains shown, part only)
VH: QVQLVQSGAEVKKPGESLKISCKGSGYSFTDYYISWVRQMPGKGLEWMGIIYPGDSYTSYSPRFQGQVTISADKSISTAYLQWSSLKASDTAMYYCARDYWSRPLFDVWGQGTLVTVSS
On to B22, for which the dissociation constant (Kd) was determined as 2.41 nM.

B23: 1B20 variant H8 (antibody, part only; not given: light chain, probably the common parent VL, V domains shown, part only)
VH: QVQLVQSGAEVKKPGESLKISCKGSGYSFTDYYISWVRQMPGKGLEWMGMIYPGDSYTHYSQNFQGQVTISADKSISTAYLQWSSLKASDTAMYYCARDHWSRPFFDVWGQGTLVTVSS
For B23, the Kd came to 1.35 nM.

B24: 1B20 variant D5 (antibody, part only; not given: light chain, probably the common parent VL, V domains shown, part only)
VH: QVQLVQSGAEVKKPGESLKISCKGSGYSFTNYYITWVRQMPGKGLEWMGLIYPGDSYTRYSPRFQGQVTISADKSISTAYLQWSSLKASDTAMYYCARDHWSRPYSDVWGQGTLVTVSS
The molecule B24 came in with a Kd of 1.6 nM.

B25: 1B20 variant G4 (antibody, part only; not given: light chain, probably the common parent VL, V domains shown, part only)
VH: QVQLVQSGAEVKKPGESLKISCKGSGYSFTNYYISWVRQMPGKGLEWMGLIYPGDSYTRYSPRFQGQVTISADKSISTAYLQWSSLKASDTAMYYCARDHGYKPYSDIWGQGTLVTVSS
In the case of B25, the Kd worked out at 2.9 nM.

B26: 1B20 variant A1 (antibody, part only; not given: light chain, probably the common parent VL, V domains shown, part only)
VH: QVQLVQSGAEVKKPGESLKISCKGSGYSFTDYYISWVRQMPGKGLEWMGLIYPGDSYTRYNPSFQGQVTISADKSISTAYLQWSSLKASDTAMYYCARDYWSKPLSDIWGQGTLVTVSS
For the molecule B26, the Kd amounted to 2.15 nM.

B27: 1B20 variant F4 (antibody, part only; not given: light chain, probably the common parent VL, V domains shown, part only)
VH: QVQLVQSGAEVKKPGESLKISCKGSGYSFTDYYISWVRQMPGKGLEWMGLIYPGDSYTRYSPSFQGQVTISADKSISTAYLQWSSLKASDTAMYYCARDYYSKPLFDVWGQGTLVTVSS
The molecule B27 yielded a Kd of 3.14 nM.

B28: 1B20 variant E1 (antibody, part only; not given: light chain, probably the common parent VL, V domains shown, part only)
VH: QVQLVQSGAEVKKPGESLKISCKGSGYSFTNYYISWVRQMPGKGLEWMGMIYPGDSYTSYNPNFQGQVTISADKSISTAYLQWSSLKASDTAMYYCARDHWSKPFFDIWGQGTLVTVSS
Consider B28, for which the Kd came out at 1.36 nM.

B29: 1B20 variant B1 (antibody, part only; not given: light chain, probably the common parent VL, V domains shown, part only)
VH: QVQLVQSGAEVKKPGESLKISCKGSGYSFTDYYISWVRQMPGKGLEWMGIIYPGDSYTHYSPNFQGQVTISADKSISTAYLQWSSLKASDTAMYYCARDYWYTPFFDVWGQGTLVTVSS
Turning to B29, the Kd was determined as 3.73 nM.

B30: 1B20 variant E2 (antibody, part only; not given: light chain, probably the common parent VL, V domains shown, part only)
VH: QVQLVQSGAEVKKPGESLKISCKGSGYSFTNYYISWVRQMPGKGLEWMGLIYPGDSYTRYNRKFQGQVTISADKSISTAYLQWSSLKASDTAMYYCARDYYSRPLSDVWGQGTLVTVSS
For the molecule B30, the dissociation constant Kd turned out to be 2.62 nM.

B31: 1B20 variant C3 (antibody, part only; not given: light chain, probably the common parent VL, V domains shown, part only)
VH: QVKLVQSGAEVKKPGESLKISCKGSGYSFTNYYIAWVRQMPGKGLEWMGIIYPGDSYTHYNPKFQGQVTISADKSISTAYLQWSSLKASDTAMYYCARDHGYKPFSDIWGQGTLVTVSS
Turning to B31, the Kd came out at 4.5 nM.

B32: 1B20 variant G8 (antibody, part only; not given: light chain, probably the common parent VL, V domains shown, part only)
VH: QVQLVQSGAEVKKPGESLKISCKGSGYSFTDYYISWVRQMPGKGLEWMGLIYPGDSYTHYNPNFQGQVTISADKSISTAYLQWSSLKASDTAMYYCARDHWSKPYFDVWGQGTLVTVSS
Molecule B32 had a Kd of 1.51 nM.

B33: 1B20 variant G5 (antibody, part only; not given: light chain, V domains shown, part only)
VH: QVQLVQSGAEVKKPGESLKISCKGSGYSFTDYYISWVRQMPGKGLEWMGLIYPGDSYTRYSPNFQGQVTISADKSISTAYLQWSSLKASDTAMYYCARDHGYRPYSDIWGQGTLVTVSS
As for B33, the Kd was determined as 1.65 nM.

The record behind these values is patent publication US20130071379A1.
